IntAct's records for PubMed 22575959

Biological target: rspo1_human RSPO1 (UniProt Q2MKA7)
Sequence (Q2MKA7 whole entry): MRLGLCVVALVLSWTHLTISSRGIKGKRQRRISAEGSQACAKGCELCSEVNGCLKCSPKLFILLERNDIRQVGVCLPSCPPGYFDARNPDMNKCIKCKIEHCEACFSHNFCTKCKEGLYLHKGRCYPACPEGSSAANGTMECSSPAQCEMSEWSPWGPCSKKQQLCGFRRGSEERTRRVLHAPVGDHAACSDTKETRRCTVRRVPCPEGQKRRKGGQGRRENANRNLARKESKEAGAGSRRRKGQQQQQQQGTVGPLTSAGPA

effect of a mutation on the interaction: disrupting interaction strength
Substance: E3 ubiquitin-protein ligase ZNRF3 (Homo sapiens), Q9ULT6 P103A
